10 variants from FireProtDB (doi:10.1016/0022-2836(91)90566-o) can be followed below.

B1: DNA-Binding protein, P69542 (parent)
chain: MIKVEIKPSQAQFTTRSGVSRQGKPYSLNEQLCYVDLGNEYPVLVKITLDEGQPAYAPGLYTVHLSSFKVGQFGSLMIDRLRLVPAK

The variants in this data set derive from B1. Conditions: Enterobacteria phage fd; pH 7; 25 °C; GdnHCl; CD; MOPS 50 mM; NaCl 100 mM; reversible: yes; structure 1VQB; whole UniProt chain shown.

For the variant MIKVEIKPSQAQFTTRSGVSRQGKPYSLNEQLCYVDLGNEYPVLVKITLDEGQPAYAPGLYTVHLSSLKVGQFGSLMIDRLRLVPAK [F68L], the “ddG of mutation (higher = less stable)” value was determined as 4.2 kcal/mol, the denaturant m value worked out at 3.4 kcal/mol/M, the “denaturant midpoint (higher = more stable)” value (“denaturant midpoint” for short) came to 1.4 M and the unfolding free energy came to 4.8 kcal/mol.

As for MIKVEIKPSQAQFTTRSGVSRQGKPYSLNEQLCYVDLGNEYPVLVKITLDEGQPAYAPGLYTVHLSSFMVGQFGSLMIDRLRLVPAK [K69M], the “ddG of mutation (higher = less stable)” value was -0.2 kcal/mol, the denaturant m value stood at 3.1 kcal/mol/M, the “denaturant midpoint” value came out at 2.7 M and the unfolding free energy was 9.2 kcal/mol.

On to MIKVEIKPSQAQFTTRSGVSRQGKPYSLNEQLCYVNLGNEYPVLVKITLDEGQPAYAPGLYTVHLSSFKVGQFGSLMIDRLRLVPAK [D36N], for which the “ddG of mutation (higher = less stable)” value amounted to 1 kcal/mol, the denaturant m value stood at 4.2 kcal/mol/M, the “denaturant midpoint” value was found to be 2.2 M and the unfolding free energy worked out at 8 kcal/mol.

Turning to MIKVEIKPSQAQFTTRSGVSRQGKPYSLNEQLCYVCLGNEYPVLVKITLDEGQPAYAPGLYTVHLSSFKVGQFGSLMIDRLRLVPAK [D36C], the “ddG of mutation (higher = less stable)” value is 2 kcal/mol, the denaturant m value is 3.5 kcal/mol/M, the “denaturant midpoint” value turned out to be 2 M and the unfolding free energy was 7 kcal/mol.

On to MIKVEIKPSQAQFTTRSGVSRQGKPYSLNEQLCYVDLGNEYPVLVKITLDEGQPAYAPGLYTVHLSSFKCGQFGSLMIDRLRLVPAK [V70C], for which the “ddG of mutation (higher = less stable)” value stood at 3.1 kcal/mol, the denaturant m value came out at 4.4 kcal/mol/M, the “denaturant midpoint” value worked out at 1.7 M and the unfolding free energy was 5.9 kcal/mol.

Take MIKVEIKPSQAQFTTRSGVSRQGKPYSLNEQLCYVDLGNEYPVLVKITLDEGQPAYAPGLYTVHLSSFKPGQFGSLMIDRLRLVPAK [V70P]: the “ddG of mutation (higher = less stable)” value came out at 5 kcal/mol, the denaturant m value is 4.4 kcal/mol/M, the “denaturant midpoint” value stood at 1.3 M and the unfolding free energy turned out to be 4 kcal/mol.

On to MIKVEIKPSQAQFTTRSGVSRQGKPYSLNEQLSYVDLGNEYPVLVKITLDEGQPAYAPGLYTVHLSSFKVGQFGSLMIDRLRLVPAK [C33S], for which the “ddG of mutation (higher = less stable)” value was found to be 4.2 kcal/mol, the denaturant m value came to 4 kcal/mol/M, the “denaturant midpoint” value came out at 1.4 M and the unfolding free energy amounted to 4.8 kcal/mol.

Turning to MIKVEIKPSQAQFTTRSGVSRQGKPYSLNEQLCYVDLGNEYPVLVKITLHEGQPAYAPGLYTVHLSSFKVGQFGSLMIDRLRLVPAK [D50H], the “ddG of mutation (higher = less stable)” value turned out to be 1.5 kcal/mol, the denaturant m value was 3.8 kcal/mol/M, the “denaturant midpoint” value worked out at 2.1 M and the unfolding free energy turned out to be 7.5 kcal/mol.

Regarding MIKVEIKPSQAQFTTRSGVSRQGKPYSLNEQLCYVDLGNEYPVLVKTTLDEGQPAYAPGLYTVHLSSFKVGQFGSLMIDRLRLVPAK [I47T], the “ddG of mutation (higher = less stable)” value was 7.4 kcal/mol, the denaturant m value amounted to 4.9 kcal/mol/M, the “denaturant midpoint” value worked out at 0.9 M and the unfolding free energy is 1.6 kcal/mol.

As to MIKVEIKPSQAQFTTRSGVSRQGKPYSLNMQLCYVDLGNEYPVLVKITLDEGQPAYAPGLYTVHLSSFKVGQFGSLMIDRLRLVPAK [E30M], the “ddG of mutation (higher = less stable)” value was -0.7 kcal/mol, the denaturant m value was 3.7 kcal/mol/M, the “denaturant midpoint” value stood at 2.78 M and the unfolding free energy came out at 9.7 kcal/mol.
